Blank lines part the entries; values can stand above or below the binder they belong to.
Columns and labels:
[1] = target: T1, cynomolgus monkey CD8 alpha on primary cynomolgus CD8+ T cells (cynomolgus monkey, UniProt P01732 23-235 (human entry)); test: flow cytometry, cyno CD8+ T cells
T1 construct: also called Cyno CD8alpha; cyno CD8A

human CD8A-Fc (in house) = target: T2, human CD8A-Fc (in house) (human, UniProt P01732 22-182, limits assumed); test: SPR (ProteOn), captured hCD8A-Fc
T2 construct: captured by goat anti-human Fc on the ProteOn chip; also called hCD8A-Fc; recombinant human CD8 alpha; not shown: linker/tag and Fc of human IgG1

[2] = target: T3, human CD8 alpha (CD8A) on primary human CD8+ T cells (human, UniProt P01732 22-235); test: flow cytometry, human CD8+ T cells
T3 construct: whole, on cells; also called hCD8A

[3] = target: T4, human CD8A-Fc (recombinant human CD8 alpha fused to Fc fragment of human IgG1) (human, UniProt P01732 22-182, limits assumed); test: SPR, dissociation rate on recombinant CD8 alpha
T4 construct: SPR ligand, captured by goat anti-human Fc; also called hCD8A-Fc; recombinant CD8 alpha; not shown: linker with flag (and polyhistidine) tag and Fc fragment of human IgG1; depends on which of the two constructs was used
T4 sequence (P01732 22-182 limits assumed): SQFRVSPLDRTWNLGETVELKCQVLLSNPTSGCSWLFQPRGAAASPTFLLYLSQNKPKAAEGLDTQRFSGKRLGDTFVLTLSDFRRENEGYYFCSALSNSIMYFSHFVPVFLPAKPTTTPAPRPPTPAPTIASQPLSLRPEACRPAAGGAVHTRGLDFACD

T2 sequence (P01732 22-182 limits assumed): as above
T3 sequence (P01732 22-235): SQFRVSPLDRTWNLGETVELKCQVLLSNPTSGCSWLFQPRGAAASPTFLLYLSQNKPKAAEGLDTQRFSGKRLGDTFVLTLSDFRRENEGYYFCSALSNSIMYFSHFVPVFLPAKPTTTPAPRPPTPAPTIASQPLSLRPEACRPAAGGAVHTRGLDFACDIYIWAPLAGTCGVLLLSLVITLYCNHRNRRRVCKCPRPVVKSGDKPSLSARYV
T1 sequence (P01732 other isoform, or with tags, fused parts or gaps limits assumed): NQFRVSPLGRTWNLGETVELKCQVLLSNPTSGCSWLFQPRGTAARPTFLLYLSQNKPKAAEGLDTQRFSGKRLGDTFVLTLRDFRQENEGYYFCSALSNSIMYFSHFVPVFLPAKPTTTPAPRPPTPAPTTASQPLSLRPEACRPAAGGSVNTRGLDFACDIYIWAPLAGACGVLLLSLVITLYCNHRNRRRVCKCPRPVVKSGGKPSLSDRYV

B1: P283BR9P1363_F2 (designed binder)
chain: LPAPKNLVVSRVTEDSARLSWYRPDNRAGAFDSFLIQYQESEKVGEAIVLTVPGSERSYDLTGLKPGTEYTVSIYGVDVKYDIDSRPISSNPLSAIFTT
notes: FN3 domain
Cyno T-cell Binding 0.2 uM (MFI) [1]: 5280 MFI
Cyno T-cell Binding 2 uM (MFI) [1]: 33300 MFI
koff (human CD8A-Fc (in house)): 0.000288 s⁻¹
Human T-cell Binding 0.2 uM (MFI) [2]: 3270 MFI
Human T-cell Binding 2 uM (MFI) [2]: 14500 MFI

B2: CD8S371 (designed binder)
chain: LPAPKNLVVSRVTEDSARLSWTAPDAAFDSFQIAYPEYPPPGEAIVLTVPGSERSYDLTGLKPGTEYFVIIQGVKGGVESWPLSAIFTT
notes: Printed as W48Y mutant of P282DR9P1359_F5; the entry holds the mutation
koff [3]: 0.000194 s⁻¹

B4: CD8S372 (designed binder)
chain: LPAPKNLVVSRVTEDSARLSWTAPDAAFDSFQIAYPELPPPGEAIVLTVPGSERSYDLTGLKPGTEYFVIIQGVKGGVESWPLSAIFTT
notes: Printed as W48L mutant of P282DR9P1359_F5; the entry holds the mutation
koff [3]: 0.000571 s⁻¹

B5: CD8S375 (designed binder)
chain: LPAPKNLVVSRVTEDSARLSWTAPDAAFDSFQIAYPEWPPPGEAIVLTVPGSERSYDLTGLKPGTEYFVIIQGVKGGVESLPLSAIFTT
notes: W81L mutant of P282DR9P1359_F5; the entry holds the mutation
koff [3]: 0.00083 s⁻¹

B7: CD8S376 (designed binder)
chain: LPAPKNLVVSRVTEDSARLSWTAPDAAFDSFQIAYPEWPPPGEAIVLTVPGSERSYDLTGLKPGTEYFVIIQGVKGGVESSPLSAIFTT
notes: W81S mutant of P282DR9P1359_F5; the entry holds the mutation
koff [3]: 0.000846 s⁻¹

B8: CD8S373 (designed binder)
chain: LPAPKNLVVSRVTEDSARLSWTAPDAAFDSFQIAYPEIPPPGEAIVLTVPGSERSYDLTGLKPGTEYFVIIQGVKGGVESWPLSAIFTT
notes: Printed as W48I mutant of P282DR9P1359_F5; the entry holds the mutation
koff [3]: 0.00403 s⁻¹

B9: CD8S374 (designed binder)
chain: LPAPKNLVVSRVTEDSARLSWTAPDAAFDSFQIAYPEWPPPGEAIVLTVPGSERSYDLTGLKPGTEYFVIIQGVKGGVESYPLSAIFTT
notes: W81Y mutant of P282DR9P1359_F5; the entry holds the mutation
koff [3]: 0.000403 s⁻¹

B10: CD8S377 (designed binder)
chain: LPAPKNLVVSRVTEDSARLSWTAPDAAFDSFQIAYPEWPPPGEAIVLTVPGSERSYDLTGLKPGTEYFVIIQGVKGGVESEPLSAIFTT
notes: W81E mutant of P282DR9P1359_F5; the entry holds the mutation
koff [3]: 0.0004 s⁻¹

B14: P283DR9P1364_F6 (designed binder)
chain: LPAPKNLVVSRVTEDSARLSWTAPDAAFDSFTIAYPEREQDKWGEAIVLTVPGSERSYDLTGLKPGTEYWVIIQGVKGGRPSTPLSAILTT
notes: FN3 domain
Cyno T-cell Binding 0.2 uM (MFI) [1]: 3160 MFI
Cyno T-cell Binding 2 uM (MFI) [1]: 33800 MFI
koff (human CD8A-Fc (in house)): 0.001 s⁻¹
Human T-cell Binding 0.2 uM (MFI) [2]: 1830 MFI
Human T-cell Binding 2 uM (MFI) [2]: 17200 MFI

B23: P283DR9P1364_F8 (designed binder)
chain: LPAPKNLVVSRVTEDSARLSWTAPDAAFDSFAIAYPEWPPGEAIVLTVPGSERSYDLTGLKPGTEYFVIIYGVKGGWTSPPLSAIFTT
notes: FN3 domain
Cyno T-cell Binding 0.2 uM (MFI) [1]: 1300 MFI
Cyno T-cell Binding 2 uM (MFI) [1]: 36700 MFI
koff (human CD8A-Fc (in house)): 0.00174 s⁻¹
Human T-cell Binding 0.2 uM (MFI) [2]: 458 MFI
Human T-cell Binding 2 uM (MFI) [2]: 6300 MFI

B24: CD8S378 (designed binder)
chain: LPAPKNLVVSRVTEDSARLSWTAPDAAFDSFAITYIEKEHIEEGEAIVLTVPGSERSYDLTGLKPGTEYWVPIWGVKGGANSWPLSAIFTT
notes: D43E mutant of P282DR9P1359_G7; the entry holds the mutation
koff [3]: 5.8e-05 s⁻¹

B25: P283DR9P1364_H9 (designed binder)
chain: LPAPKNLVVSRVTEDSARLSWTAPDAAFDSFSISYIEYPEIPGGEAIVLTVPGSERSYDLTGLKPGTEYWVPIWGVKGGIQSWPLSAIFTT
notes: FN3 domain
Cyno T-cell Binding 0.2 uM (MFI) [1]: 4560 MFI
Cyno T-cell Binding 2 uM (MFI) [1]: 54600 MFI
koff (human CD8A-Fc (in house)): 0.000271 s⁻¹
Human T-cell Binding 0.2 uM (MFI) [2]: 4060 MFI
Human T-cell Binding 2 uM (MFI) [2]: 32800 MFI

B26: CD8S379 (designed binder)
chain: LPAPKNLVVSRVTEDSARLSWTAPDAAFDSFAITYIEKEHIESGEAIVLTVPGSERSYDLTGLKPGTEYWVPIWGVKGGANSWPLSAIFTT
notes: D43S mutant of P282DR9P1359_G7; the entry holds the mutation
koff [3]: 4.97e-05 s⁻¹

B28: CD8S380 (designed binder)
chain: LPAPKNLVVSRVTEDSARLSWTAPDAAFDSFAITYIEKEHIEDGEAIVLTVPGSERSYDLTGLKPGTEYYVPIWGVKGGANSWPLSAIFTT
notes: W70Y mutant of P282DR9P1359_G7; the entry holds the mutation
koff [3]: 0.00121 s⁻¹

B33: P283BR9P1363_F6 (designed binder)
chain: LPAPKNLVVSRVTEDSARLSWPEEAVTATSFDSFLIQYQESEKVGEAIVLTVPGSERSYDLTGLKPGTEYTVSIYGVDVKWEGNRPVASNPLSAIFTT
notes: FN3 domain
Cyno T-cell Binding 0.2 uM (MFI) [1]: 4570 MFI
Cyno T-cell Binding 2 uM (MFI) [1]: 31600 MFI
koff (human CD8A-Fc (in house)): 8.21e-05 s⁻¹
Human T-cell Binding 0.2 uM (MFI) [2]: 3230 MFI
Human T-cell Binding 2 uM (MFI) [2]: 10600 MFI

B34: P283BR9P1363_G5 (designed binder)
chain: LPAPKNLVVSRVTEDSARLSWYRATTPAPHFDSFLIQYQESEKVGEAIVLTVPGSERSYDLTGLKPGTEYTVSIYGVDVKWEGNRPVASNPLSAIFTT
notes: FN3 domain
Cyno T-cell Binding 0.2 uM (MFI) [1]: 4430 MFI
Cyno T-cell Binding 2 uM (MFI) [1]: 24900 MFI
koff (human CD8A-Fc (in house)): 0.00014 s⁻¹
Human T-cell Binding 0.2 uM (MFI) [2]: 3310 MFI
Human T-cell Binding 2 uM (MFI) [2]: 14800 MFI

The next lines start with the values.

koff [3]: 0.00155 s⁻¹
B3: CD8S392 (designed binder)
chain: LPAPKNLVVSRVTEDSARLSWTAPDAAFDSFAIAYPEYPPQGEAIVLTVPGSERSYDLTGLKPGTEYFVVIYGVKGGSYSAPLSAIFTT
notes: W38Y mutant of P282DR9P1359_F7; the entry holds the mutation

koff [3]: 0.00255 s⁻¹
B6: CD8S393 (designed binder)
chain: LPAPKNLVVSRVTEDSARLSWTAPDAAFDSFAIAYPELPPQGEAIVLTVPGSERSYDLTGLKPGTEYFVVIYGVKGGSYSAPLSAIFTT
notes: W38L mutant of P282DR9P1359_F7; the entry holds the mutation

koff [3]: 0.00189 s⁻¹
B11: CD8S395 (designed binder)
chain: LPAPKNLVVSRVTEDSARLSWTAPDAAFDSFAIAYPEHPPQGEAIVLTVPGSERSYDLTGLKPGTEYFVVIYGVKGGSYSAPLSAIFTT
notes: W38H mutant of P282DR9P1359_F7; the entry holds the mutation

koff [3]: 0.00355 s⁻¹
B12: CD8S394 (designed binder)
chain: LPAPKNLVVSRVTEDSARLSWTAPDAAFDSFAIAYPEIPPQGEAIVLTVPGSERSYDLTGLKPGTEYFVVIYGVKGGSYSAPLSAIFTT
notes: W38I mutant of P282DR9P1359_F7; the entry holds the mutation

koff [3]: 0.000133 s⁻¹
B13: CD8S403 (designed binder)
chain: LPAPKNLVVSRVTEDSARLSWTAPDAAFDSFAIAYAEWPPQGEAIVLTVPGSERSYDLTGLKPGTEYFVVIYGVKGGSYSAPLSAIFTT
notes: P36A mutant of P282DR9P1359_F7; the entry holds the mutation

koff [3]: 0.000152 s⁻¹
B15: CD8S396 (designed binder)
chain: LPAPKNLVVSRVTEDSARLSWTAPDAAFDSFYITYPEWPDPGGEAIVLTVPGSERSYDLTGLKPGTEYFVVIYGVKGGEIYSPLSAIFTT
notes: W32Y mutant of P282DR9P1359_C5; the entry holds the mutation

koff [3]: 0.00134 s⁻¹
B16: CD8S399 (designed binder)
chain: LPAPKNLVVSRVTEDSARLSWTAPDAAFDSFWITYPEYPDPGGEAIVLTVPGSERSYDLTGLKPGTEYFVVIYGVKGGEIYSPLSAIFTT
notes: W38Y mutant of P282DR9P1359_C5; the entry holds the mutation

koff [3]: 4.84e-05 s⁻¹
B17: CD8S402 (designed binder)
chain: LPAPKNLVVSRVTEDSARLSWTAPDAAFDSFWITYPEWPPPGGEAIVLTVPGSERSYDLTGLKPGTEYFVVIYGVKGGEIYSPLSAIFTT
notes: D40P mutant of P282DR9P1359_C5; the entry holds the mutation

koff [3]: 0.0309 s⁻¹
B18: CD8S404 (designed binder)
chain: LPAPKNLVVSRVTEDSARLSWTAPDAAFDSFWITYAEWPDPGGEAIVLTVPGSERSYDLTGLKPGTEYFVVIYGVKGGEIYSPLSAIFTT
notes: P36A mutant of P282DR9P1359_C5; the entry holds the mutation

koff [3]: 0.000443 s⁻¹
B19: CD8S398 (designed binder)
chain: LPAPKNLVVSRVTEDSARLSWTAPDAAFDSFSITYPEWPDPGGEAIVLTVPGSERSYDLTGLKPGTEYFVVIYGVKGGEIYSPLSAIFTT
notes: W32S mutant of P282DR9P1359_C5; the entry holds the mutation

koff [3]: 0.0127 s⁻¹
B20: CD8S401 (designed binder)
chain: LPAPKNLVVSRVTEDSARLSWTAPDAAFDSFWITYPEIPDPGGEAIVLTVPGSERSYDLTGLKPGTEYFVVIYGVKGGEIYSPLSAIFTT
notes: W38I mutant of P282DR9P1359_C5; the entry holds the mutation

koff [3]: 0.0226 s⁻¹
B21: CD8S400 (designed binder)
chain: LPAPKNLVVSRVTEDSARLSWTAPDAAFDSFWITYPELPDPGGEAIVLTVPGSERSYDLTGLKPGTEYFVVIYGVKGGEIYSPLSAIFTT
notes: W38L mutant of P282DR9P1359_C5; the entry holds the mutation

koff [3]: 0.00066 s⁻¹
B22: CD8S397 (designed binder)
chain: LPAPKNLVVSRVTEDSARLSWTAPDAAFDSFQITYPEWPDPGGEAIVLTVPGSERSYDLTGLKPGTEYFVVIYGVKGGEIYSPLSAIFTT
notes: W32Q mutant of P282DR9P1359_C5; the entry holds the mutation

koff [3]: 7.54e-05 s⁻¹
B27: CD8S388 (designed binder)
chain: LPAPKNLVVSRVTEDSARLSWTAPDAAFDSFAITYIEKEHIEDGEAIVLTVPGSERSYDLTGLKPGTEYWVPIWGVKGGAQSWPLSAIFTT
notes: N81Q mutant of P282DR9P1359_G7; the entry holds the mutation

koff [3]: 0.000747 s⁻¹
B29: CD8S383 (designed binder)
chain: LPAPKNLVVSRVTEDSARLSWTAPDAAFDSFAITYIEKEHIEDGEAIVLTVPGSERSYDLTGLKPGTEYWVPIYGVKGGANSWPLSAIFTT
notes: W74Y mutant of P282DR9P1359_G7; the entry holds the mutation

koff [3]: 0.000125 s⁻¹
B30: CD8S387 (designed binder)
chain: LPAPKNLVVSRVTEDSARLSWTAPDAAFDSFAITYIEKEHIEDGEAIVLTVPGSERSYDLTGLKPGTEYWVPIWGVKGGANSEPLSAIFTT
notes: W83E mutant of P282DR9P1359_G7; the entry holds the mutation

koff [3]: 0.0002 s⁻¹
B31: CD8S381 (designed binder)
chain: LPAPKNLVVSRVTEDSARLSWTAPDAAFDSFAITYIEKEHIEDGEAIVLTVPGSERSYDLTGLKPGTEYFVPIWGVKGGANSWPLSAIFTT
notes: W70F mutant of P282DR9P1359_G7; the entry holds the mutation

koff [3]: 0.247 s⁻¹
B32: CD8S382 (designed binder)
chain: LPAPKNLVVSRVTEDSARLSWTAPDAAFDSFAITYIEKEHIEDGEAIVLTVPGSERSYDLTGLKPGTEYSVPIWGVKGGANSWPLSAIFTT
notes: W70S mutant of P282DR9P1359_G7; the entry holds the mutation
